Measured values taken from US20210284749A1 (ABL BIO, published 2021).

T1: human monomeric BCMA antigen (human, UniProt Q02223 5-54, limits assumed)
T1 construct: also called recombinant human BCMA antigens
T1 chain: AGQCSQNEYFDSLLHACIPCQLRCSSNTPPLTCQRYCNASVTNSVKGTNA

T2: human BCMA expressed on cell surface (H929, OPM-2, CHOK1-hBCMA cells) (human, UniProt Q02223 1-184)
T2 construct: also called cell-surface BCMA; BCMA on cell surface
T2 sequence: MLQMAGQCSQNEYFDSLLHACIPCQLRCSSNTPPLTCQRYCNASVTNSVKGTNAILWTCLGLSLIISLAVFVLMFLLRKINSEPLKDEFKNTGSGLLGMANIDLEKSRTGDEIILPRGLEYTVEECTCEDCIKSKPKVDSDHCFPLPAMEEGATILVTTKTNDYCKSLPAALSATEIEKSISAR

T3: recombinant human BCMA (ELISA antigen, construct not specified) (human, UniProt Q02223 1-54)
T3 construct: Fc 1-51; Fc/His 1-51; Fc 4-48) was coated in these ELISAs; also called recombinant BCMA; recombinant protein
T3 sequence: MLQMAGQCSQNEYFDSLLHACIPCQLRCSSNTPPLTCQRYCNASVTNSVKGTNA

T4: human BCMA-Fc/His (1-51) (human, UniProt Q02223 1-51)
T4 construct: also called recombinant human BCMA-Fc/His; recombinant human BCMA-His (Sino Biological Inc.); not shown: Fc region; C-terminal His tag
T4 sequence: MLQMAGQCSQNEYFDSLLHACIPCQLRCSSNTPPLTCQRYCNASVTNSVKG

B1: mutant antibody 5D5 LM4 (antibody, V domains shown)
VH: EVQLLESGGGLVQPGGSLRLSCAASGFTFSDYGLSWVRQAPGKGLEWVSLIDSSGSSTFYADSVKGRFTISRDNSKNTLYLQMNSLRAEDTAVYYCAKEHGLFDSWGQGTLVTVSS
VL: EIVLTQSPGTLSLSPGERATLSCKASQDIDDAINWYQQKPGQAPRLLIYDASLRATGIPDRFSGSGSGTDFTLTISRLEPEDFAVYYCQQSLRTPITFGQGTKLEIKR
notes: Light chain CDR mutant of 5D5 (IgG1); heavy chain as 5D5
B2: mutant antibody 5D5 LM5 (antibody, V domains shown)
VH: EVQLLESGGGLVQPGGSLRLSCAASGFTFSDYGLSWVRQAPGKGLEWVSLIDSSGSSTFYADSVKGRFTISRDNSKNTLYLQMNSLRAEDTAVYYCAKEHGLFDSWGQGTLVTVSS
VL: EIVLTQSPGTLSLSPGERATLSCKASQDIDDEINWYQQKPGQAPRLLIYDASLRATGIPDRFSGSGSGTDFTLTISRLEPEDFAVYYCQQSLRTPITFGQGTKLEIKR
notes: as for B1
B3: mutant antibody 5D5 LM2 (antibody, V domains shown)
VH: EVQLLESGGGLVQPGGSLRLSCAASGFTFSDYGLSWVRQAPGKGLEWVSLIDSSGSSTFYADSVKGRFTISRDNSKNTLYLQMNSLRAEDTAVYYCAKEHGLFDSWGQGTLVTVSS
VL: EIVLTQSPGTLSLSPGERATLSCKASQDIDEDINWYQQKPGQAPRLLIYDASLRATGIPDRFSGSGSGTDFTLTISRLEPEDFAVYYCQQSLRTPITFGQGTKLEIKR
notes: as for B1
B4: mutant antibody 5D5 LM3 (antibody, V domains shown)
VH: EVQLLESGGGLVQPGGSLRLSCAASGFTFSDYGLSWVRQAPGKGLEWVSLIDSSGSSTFYADSVKGRFTISRDNSKNTLYLQMNSLRAEDTAVYYCAKEHGLFDSWGQGTLVTVSS
VL: EIVLTQSPGTLSLSPGERATLSCKASQDIDADINWYQQKPGQAPRLLIYDASLRATGIPDRFSGSGSGTDFTLTISRLEPEDFAVYYCQQSLRTPITFGQGTKLEIKR
notes: as for B1
B5: mutant antibody 5D5 LM1 (antibody, V domains shown)
VH: EVQLLESGGGLVQPGGSLRLSCAASGFTFSDYGLSWVRQAPGKGLEWVSLIDSSGSSTFYADSVKGRFTISRDNSKNTLYLQMNSLRAEDTAVYYCAKEHGLFDSWGQGTLVTVSS
VL: EIVLTQSPGTLSLSPGERATLSCKASQDIDNDINWYQQKPGQAPRLLIYDASLRATGIPDRFSGSGSGTDFTLTISRLEPEDFAVYYCQQSLRTPITFGQGTKLEIKR
notes: as for B1
B6: mutant antibody 5A6 LM6 (antibody, V domains shown)
VH: EVQLLESGGGLVQPGGSLRLSCAASGFTFSNYGVHWVRQAPGKGLEWVSYISYSGGTYYNPSLKSRFTISRDNSKNTLYLQMNSLRAEDTAVYYCARDSDDFGFDYWGQGTLVTVSS
VL: QSVLTQPPSASGTPGQRVTISCQGESLRSYYVNWYQQLPGTAPKLLIYDHSKRPTGVPDRFSGSKSGTSASLAISGLRSEDEADYYCQSYDASTVVFGGGTKLTVLG
notes: Light chain CDR mutant of 5A6 (IgG1); heavy chain as 5A6
B7: mutant antibody 5A6 LM3 (antibody, V domains shown)
VH: EVQLLESGGGLVQPGGSLRLSCAASGFTFSNYGVHWVRQAPGKGLEWVSYISYSGGTYYNPSLKSRFTISRDNSKNTLYLQMNSLRAEDTAVYYCARDSDDFGFDYWGQGTLVTVSS
VL: QSVLTQPPSASGTPGQRVTISCQGDSLRSYYVNWYQQLPGTAPKLLIYDHSKRPTGVPDRFSGSKSGTSASLAISGLRSEDEADYYCQSYESSTVVFGGGTKLTVLG
notes: as for B6
B8: mutant antibody 5A6 LM2 (antibody, V domains shown)
VH: EVQLLESGGGLVQPGGSLRLSCAASGFTFSNYGVHWVRQAPGKGLEWVSYISYSGGTYYNPSLKSRFTISRDNSKNTLYLQMNSLRAEDTAVYYCARDSDDFGFDYWGQGTLVTVSS
VL: QSVLTQPPSASGTPGQRVTISCQGDALRSYYVNWYQQLPGTAPKLLIYDHSKRPTGVPDRFSGSKSGTSASLAISGLRSEDEADYYCQSYDSSTVVFGGGTKLTVLG
notes: as for B6
B9: mutant antibody 5A6 LM7 (antibody, V domains shown)
VH: EVQLLESGGGLVQPGGSLRLSCAASGFTFSNYGVHWVRQAPGKGLEWVSYISYSGGTYYNPSLKSRFTISRDNSKNTLYLQMNSLRAEDTAVYYCARDSDDFGFDYWGQGTLVTVSS
VL: QSVLTQPPSASGTPGQRVTISCQGDALRSYYVNWYQQLPGTAPKLLIYDHSKRPTGVPDRFSGSKSGTSASLAISGLRSEDEADYYCQSYESSTVVFGGGTKLTVLG
notes: as for B6
B10: mutant antibody 5A6 LM1 (antibody, V domains shown)
VH: EVQLLESGGGLVQPGGSLRLSCAASGFTFSNYGVHWVRQAPGKGLEWVSYISYSGGTYYNPSLKSRFTISRDNSKNTLYLQMNSLRAEDTAVYYCARDSDDFGFDYWGQGTLVTVSS
VL: QSVLTQPPSASGTPGQRVTISCQGESLRSYYVNWYQQLPGTAPKLLIYDHSKRPTGVPDRFSGSKSGTSASLAISGLRSEDEADYYCQSYDSSTVVFGGGTKLTVLG
notes: as for B6
B11: mutant antibody 5A6 LM4 (antibody, V domains shown)
VH: EVQLLESGGGLVQPGGSLRLSCAASGFTFSNYGVHWVRQAPGKGLEWVSYISYSGGTYYNPSLKSRFTISRDNSKNTLYLQMNSLRAEDTAVYYCARDSDDFGFDYWGQGTLVTVSS
VL: QSVLTQPPSASGTPGQRVTISCQGDSLRSYYVNWYQQLPGTAPKLLIYDHSKRPTGVPDRFSGSKSGTSASLAISGLRSEDEADYYCQSYDASTVVFGGGTKLTVLG
notes: as for B6
B12: mutant antibody 5A6 LM5 (antibody, V domains shown)
VH: EVQLLESGGGLVQPGGSLRLSCAASGFTFSNYGVHWVRQAPGKGLEWVSYISYSGGTYYNPSLKSRFTISRDNSKNTLYLQMNSLRAEDTAVYYCARDSDDFGFDYWGQGTLVTVSS
VL: QSVLTQPPSASGTPGQRVTISCQGESLRSYYVNWYQQLPGTAPKLLIYDHSKRPTGVPDRFSGSKSGTSASLAISGLRSEDEADYYCQSYESSTVVFGGGTKLTVLG
notes: as for B6
B13: mutant antibody 5A6 LM8 (antibody, V domains shown)
VH: EVQLLESGGGLVQPGGSLRLSCAASGFTFSNYGVHWVRQAPGKGLEWVSYISYSGGTYYNPSLKSRFTISRDNSKNTLYLQMNSLRAEDTAVYYCARDSDDFGFDYWGQGTLVTVSS
VL: QSVLTQPPSASGTPGQRVTISCQGDALRSYYVNWYQQLPGTAPKLLIYDHSKRPTGVPDRFSGSKSGTSASLAISGLRSEDEADYYCQSYDASTVVFGGGTKLTVLG
notes: as for B6
B14: anti-BCMA IgG antibody 2C6 (antibody, V domains shown)
VH: EVQLLESGGGLVQPGGSLRLSCAASGFTFSNYGMSWVRQAPGKGLEWVSSIDYNGSTYYNPSLKSRFTISRDNSKNTLYLQMNSLRAEDTAVYYCAKEHGLFDSWGQGTLVTVSS
VL: EIVLTQSPGTLSLSPGERATLSCRVSQSISSYLNWYQQKPGQAPRLLIYDASTRAIGIPDRFSGSGSGTDFTLTISRLEPEDFAVYYCQQVNSYPITFGQGTKVEIKR

Columns and labels:
[1] = biological target: T1, human monomeric BCMA antigen; assay: SPR (Biacore T200), antibody captured on protein A chip, antigen 6.25-100 nM
Method: In particular, the prepared antibodies were diluted with a 1×HPS-EP buffer (GE Healthcare, BR-1006-69). The target antigen-binding affinity analysis was performed using a Biacore T200 (GE Healthcare). The antibodies were flowed onto a protein A chip at a contact time of 60 seconds, a stabilization time of 30 seconds, and a flow rate of 30 μl/min until a capture level reached 128 RU (Response Unit), thereby preparing an antibody-captured protein A chip.
The antigen was sequentially diluted with a 1×HPS-EP buffer, by 2-fold each time, from 100 nM to 6.25 nM, thereby preparing a total of […] samples. The 1×HPS-EP buffer was used as a negative control group (blank).
The prepared antigen was flowed across the antibody-captured protein A chip at a flow rate of 30 μl/min for an association time of 60 seconds, followed by a disassociation phase for 180 seconds. Regeneration was performed with a 10-mM Glycine-HCL (pH 1.5) buffer (GE Healthcare, BR-1003-54) at a flow rate of 30 μl/min for a contact time of 30 seconds.

[2] = biological target: T2, human BCMA expressed on cell surface …; assay: FACS on H929 cells
[3] = biological target: T3, recombinant human BCMA (ELISA antigen, …); assay: ELISA on recombinant BCMA
[4] = biological target: T3, recombinant human BCMA (ELISA antigen, …); assay: ELISA on coated recombinant human BCMA, antibody titrated, HRP anti-Fab detection, absorbance 450 nm
Method: Specific binding abilities of the anti-BCMA IgG antibodies isolated in Example 1.4 to recombinant BCMA protein were analyzed by ELISA.
Using recombinant human BCMA or monkey BCMA as an antigen, and HRP-conjugated Fab polychronal antibody reagent (Pierce, 31414) as a secondary antibody, ELISA was performed as described in Example 1.3.

human BCMA-Fc/His (1-51) = biological target: T4, human BCMA-Fc/His (1-51); assay: BLI (Octet), antigen on Ni-NTA biosensor, IgG in solution
Method: A 96-well black microplate was mounted on a Biosensor tray case, 200 μl of 1XKB was added to each of the 8 wells, and then 8 Ni-NTA biosensors (Fortebio) were inserted thereto for hydration for 10 minutes. For antigen fixation, 5 μg/ml of recombinant human BCMA-His (Sino Biological Inc.) was diluted using 1XKB. Experiments were performed with a threshold of 0.5 to 1.0 nm, and Octet Data Acquisition 9.0 software was activated to create an Octet program template. The first step was for Baseline 1, the second step was for loading, and the threshold was fixed to 0.5 to 1.0 nm. In the third step, which was for Baseline 2, association for 5 minutes and dissociation for 20 minutes were performed. A plate temperature was fixed to 30° C., and the prepared buffer solution was placed in order into a new 96-well black microplate according to the Octet program template. 200 μl of 1XKB used as Baseline 1 and recombinant human BCMA-Fc/His which is an antigen to be loaded were diluted to 5 μg/ml, and 200 μl of the dilution was added thereto. After adding 200 μl of 1XKB used as Baseline 2, 200 μl of the antibody to be reacted with the antigen was dispensed, and the instrument was operated. After completion of the experiment, an association constant (kon), a dissociation constant (kdis), and an equilibrium dissociation constant (KD) for each antibody were analyzed and calculated with Octet Analysis 9.0 software.

Binder	MFI [2]	EC50 [3] [nM]	also measured
B1	62.3	0.0708	Kd [1]: 14.2 nM; koff [1]: 0.0594 s⁻¹; kon [1]: 4.17e+06 M⁻¹ s⁻¹
B2	73.6	0.0763	
B3	29	0.0858	
B4	31.5	0.0593	
B5	32	0.0939	
B6	78.9	0.0537	Kd [1]: 18.1 nM; koff [1]: 0.00922 s⁻¹; kon [1]: 509000 M⁻¹ s⁻¹
B7	84.6	0.133	
B8	66.7	0.0509	
B9	71.1	0.105	
B10	83.4	0.0818	
B11	77.1	0.0823	
B12	81.4	0.103	
B13	68.6	0.068	
B14			EC50 (read off the curve) [4]: ~0.05 µg/mL; Kd (human BCMA-Fc/His (1-51)): 0.37 nM; koff (human BCMA-Fc/His (1-51)): 0.000403 s⁻¹; kon (human BCMA-Fc/His (1-51)): 1.09e+06 M⁻¹ s⁻¹
